Test results: publication PMC6853982

Molecular target: GFP-AtEH1/Pan1 (Arabidopsis) (UniProt Q9LM78)
Test: FRET or BRET; FRET-FLIM in N. benthamiana leaf cells transiently co-expressing the GFP donor and RFP acceptor fusions; GFP-AtEH1/Pan1 alone as donor control; whole field images

Chain of UniProt Q9LM78 (Q9LM78 entry or part of it): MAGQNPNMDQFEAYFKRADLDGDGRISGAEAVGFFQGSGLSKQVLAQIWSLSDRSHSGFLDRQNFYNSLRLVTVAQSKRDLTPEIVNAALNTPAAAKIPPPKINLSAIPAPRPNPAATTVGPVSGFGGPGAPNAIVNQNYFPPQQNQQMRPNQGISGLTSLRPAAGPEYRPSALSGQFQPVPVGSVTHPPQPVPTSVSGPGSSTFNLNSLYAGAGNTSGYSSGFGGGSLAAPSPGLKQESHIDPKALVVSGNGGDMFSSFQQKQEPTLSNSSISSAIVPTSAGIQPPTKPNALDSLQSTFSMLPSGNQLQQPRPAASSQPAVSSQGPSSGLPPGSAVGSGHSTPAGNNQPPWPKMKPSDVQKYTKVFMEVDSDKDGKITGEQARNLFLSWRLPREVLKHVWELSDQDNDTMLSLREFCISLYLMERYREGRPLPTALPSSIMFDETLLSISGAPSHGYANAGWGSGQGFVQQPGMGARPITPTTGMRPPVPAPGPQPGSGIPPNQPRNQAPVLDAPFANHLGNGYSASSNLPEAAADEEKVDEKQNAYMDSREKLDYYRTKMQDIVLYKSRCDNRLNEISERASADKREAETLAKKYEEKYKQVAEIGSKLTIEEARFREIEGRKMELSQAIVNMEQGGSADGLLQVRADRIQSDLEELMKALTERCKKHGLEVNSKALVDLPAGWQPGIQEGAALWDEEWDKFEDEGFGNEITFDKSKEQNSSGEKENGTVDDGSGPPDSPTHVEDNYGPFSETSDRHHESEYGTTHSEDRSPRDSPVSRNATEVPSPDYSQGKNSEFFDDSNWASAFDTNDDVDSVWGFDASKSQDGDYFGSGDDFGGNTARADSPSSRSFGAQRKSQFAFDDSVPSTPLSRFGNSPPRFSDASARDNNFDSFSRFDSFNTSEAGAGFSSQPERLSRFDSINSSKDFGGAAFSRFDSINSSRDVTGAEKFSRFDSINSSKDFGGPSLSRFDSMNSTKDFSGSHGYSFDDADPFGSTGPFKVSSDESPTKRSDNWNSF

fluorescence life-time of the GFP donor in the presence of the RFP acceptor: 2.45 ns
Substance: RFP-AtEH2/Pan1 (natural protein)
